Tests used:
soybean T1 plants = experiment: Herbicide tolerance of transgenic soybean T1 plants to topramezone; type: in vivo; settings: topramezone 50 and 100 g ai/ha, 7 DAT, compared to control vector DBN11375NN and wild-type
Text: (§1) The Arabidopsisthaliana T1 plants into which the AsHPPDm-F372A-02 nucleotide sequence was introduced, Arabidopsis thaliana T1 plants into which the AsHPPD-02 nucleotide sequence was introduced and wild-type Arabidopsisthaliana plants (18 days after sowing) were sprayed with topramezone at four different concentrations, i.e., 25 g ai/ha (one-fold field concentration, 1×), 50 g ai/ha (two-fold field concentration, 2×), 100 g ai/ha (four-fold field concentration, 4×) and 0 g ai/ha (water, 0×) to determine the tolerance of Arabidopsisthaliana to the herbicide. The degree of damage caused by the herbicide was measured for each plant according to the proportion of bleached leaf area (the proportion of bleached leaf area=bleached leaf area/total leaf area×100%) 7 days after spraying (7 DAT): the case where there is basically no bleached phenotype is defined as grade 0, the case where the proportion of bleached leaf area is less than 50% is defined as grade 1,the case where the proportion of bleached leaf area is more than 50% is defined as grade 2, and the case where the proportion of bleached leaf area is 100% grade is defined as grade 3.
The soybean T1 plants into which the AsHPPDm-F372A-02 nucleotide sequence was introduced, soybean T1 plants into which the ZmHPPDm-F372A-02 nucleotide sequence was introduced, soybean T1 plants into which the PfHPPDm-F372A-02 nucleotide sequence was introduced, soybean T1 plants into which the AsHPPDm-F372A-A110 nucleotide sequence was introduced, soybean T1 plants into which, the PfHPPDm-F372A-G413W nucleotide sequence was introduced, soybean T1 plants into which the control vector DBN11375NN was introduced and wild-type soybean plants (V3-V4 at seedling stage) were sprayed with topramezone at two different concentrations respectively, i.e. 50 g ai/ha (2-fold field concentration, 2 ×) and 100 g ai/ha (4-fold field concentration, 4 ×) to detect the herbicide tolerance of soybean plants. According to the method in point 6 of Example 1, after 7 days of spraying (7 DAT), the damage degree of each plant by the herbicide was statistically analyzed, and the scoring and resistance evaluation were carried out accordingly. The soybean plants into which the AsHPPDm-F372A-02 nucleotide sequence was introduced were of two strains in total (S1 and S2), the soybean plants into which the ZmHPPDm-F372A-02 nucleotide sequence was introduced were of two strains in total (S3 and S4), the soybean plants into which the PfHPPDm-F372A-02 nucleotide sequence was introduced were of two strains in total (S5 and S6), the soybean plants into which the AsHPPDm-F372A-Al 10 nucleotide sequence was introduced were of two strains in total (S7 and S8), the soybean plants into which the PfHPPDm-F372A-G413W nucleotide sequence was introduced were of two strains in total (S9 and S10), the soybean plants into which the control vector DBN11375NN nucleotide sequence was introduced were of one strain in total (S11), and the wild-type soybean plants were of one strain in total (CK1); and 8 plants were selected from each strain and detected.

rice T1 plants = experiment: Herbicide tolerance of transgenic rice T1 plants to topramezone; type: in vivo; settings: topramezone 50 and 100 g ai/ha, 7 DAT, compared to wild-type
Text: as §1
The rice T1 plants into which the AsHPPDm-F372A-02 nucleotide sequence was introduced, rice T1 plants into which the AsHPPDm-F372A-A110 nucleotide sequence was introduced, rice T1 plants into which the ZmHPPDm-F372A-02 nucleotide sequence was introduced, rice T1 plants into which the PfHPPDm-F372A-02 nucleotide sequence was introduced and wild-type rice plants (V3-V4 at seedling stage) were sprayed with topramezone at two different concentrations respectively, i.e. 50 g ai/ha (2-fold field concentration, 2 ×) and 100 g ai/ha (4-fold field concentration, 4 ×) to detect the herbicide tolerance of rice plants. According to the method in point 6 of Example 1, after 7 days of spraying (7 DAT), the damage degree of each plant by the herbicide was statistically analyzed, and the scoring and resistance evaluation were carried out accordingly. The rice T1 plants into which AsHPPDm-F372A-02 nucleotide sequence was introduced were of two strains in total (S12 and S13), rice T1 plants into which AsHPPDm-F372A-A1 10 nucleotide sequence was introduced were of two strains in total (S14 and S15), rice T1 plants into which ZmHPPDm-F372A-02 nucleotide sequence was introduced were of two strains in total (S16 and S17), rice T1 plants into which PfHPPDm-F372A-02 nucleotide sequence was introduced were of two strains in total (S18 and S19), and the wild-type rice plants were of one strain in total (CK2); and 8 plants were selected from each strain and tested.

B1: ZmHPPDm-F372A-02: Zea mays HPPD mutant F372A, SEQ ID NO: 20 (protein)
chain: MPPTPTAAAAGAAVAAASAAEQAAFRLVGHRNFVRFNPRSDRFHTLAFHHVELWCADAASAAGRFSFGLGAPLAARSDLSTGNSAHASLLLRSGSLSFLFTAPYAHGADAATAALPSFSAAAARRFAADHGLAVRAVALRVADAEEAFRTSVAAGARPAFGPVDLGRGFRLAEVELYGDVVLRYVSYPDGAAGEPFLPGFEGVASPGAADYGLSRFDHIVGNVPELAPAAAYFAGFTGFHEFAEFTTEDVGTAESGLNSMVLANNSENVLLPLNEPVHGTKRRSQIQTFLDHHGGPGVQHMALASDDVLRTLREMQARSAMGGFEFMAPPTSDYYDGVRRRAGDVLTEAQIKECQELGVLVDRDDQGVLLQIAPKPVGDRPTLFLEIIQRIGCMERDEKGQEYQKGGCGGFGKGNFSQLFKSIEDYEKSLEAMQAAAAATAQGS
modifications: ZmHPPDm-F372A Amino Acid Sequence
Soybean T1 plants
  tolerance to topramezone, in words: higher tolerance
Rice T1 plants
  tolerance to topramezone, in words: higher tolerance

B2: AsHPPDm-F372A-02: Avena sativa HPPD mutant F372A, SEQ ID NO: 4; gene SEQ ID NO: 6 (protein)
chain: MPPTPATATGAAAAAVTPEHAARSFPRVVRVNPRSDRFPVLSFHHVELWCADAASAAGRFSFALGAPLAARSDLSTGNSAHASLLLRSGALAFLFTAPYAPPPQEAATAAATASIPSFSADAARTFAAAHGLAVRSVGVRVADAAEAFRVSVAGGARPAFAPADLGHGFGLAEVELYGDVVLRFVSYPDETDLPFLPGFERVSSPGAVDYGLTRFDHVVGNVPEMAPVIDYMKGFLGFHEFAEFTAEDVGTTESGLNSVVLANNSEAVLLPLNEPVHGTKRRSQIQTYLEYHGGPGVQHIALASNDVLRTLREMRARTPMGGFEFMAPPQAKYYEGVRRIAGDVLSEEQIKECQELGVLVDRDDQGVLLQIATKPVGDRPTFFLEMIQRIGCMEKDEVGQEYQKGGCGGFGKGNFSELFKSIEDYEKSLEVKQSVVAQKS
modifications: AsHPPDm-F372A Amido Acid Sequence
Soybean T1 plants
  tolerance to topramezone, in words: higher tolerance
Rice T1 plants
  tolerance to topramezone, in words: higher tolerance

B3: AsHPPDm-F372A-A110: Avena sativa HPPD with F372A and deletion of alanine at position 110, SEQ ID NO: 412 (protein)
chain: MPPTPATATGAAAAAVTPEHAARSFPRVVRVNPRSDRFPVLSFHHVELWCADAASAAGRFSFALGAPLAARSDLSTGNSAHASLLLRSGALAFLFTAPYAPPPQEAATAATASIPSFSADAARTFAAAHGLAVRSVGVRVADAAEAFRVSVAGGARPAFAPADLGHGFGLAEVELYGDVVLRFVSYPDETDLPFLPGFERVSSPGAVDYGLTRFDHVVGNVPEMAPVIDYMKGFLGFHEFAEFTAEDVGTTESGLNSVVLANNSEAVLLPLNEPVHGTKRRSQIQTYLEYHGGPGVQHIALASNDVLRTLREMRARTPMGGFEFMAPPQAKYYEGVRRIAGDVLSEEQIKECQELGVLVDRDDQGVLLQIATKPVGDRPTFFLEMIQRIGCMEKDEVGQEYQKGGCGGFGKGNFSELFKSIEDYEKSLEVKQSVVAQKS
modifications: AsHPPDm-F372A-A110 Amino Acid Sequence
Soybean T1 plants
  tolerance to topramezone, in words: higher tolerance
Rice T1 plants
  tolerance to topramezone, in words: higher tolerance

B4: PfHPPDm-F372A-02: Pseudomonas fluorescens HPPD mutant F372A, SEQ ID NO: 30 (protein)
chain: MADLYENPMGLMGFEFIEFASPTPGTLEPIFEIMGFTKVATHRSKNVHLYRQGEINLILNNEPNSIASYFAAEHGPSVCGMAFRVKDSQKAYNRALELGAQPIHIDTGPMELNLPAIKGIGGAPLYLIDRFGEGSSIYDIDFVYLEGVERNPVGAGLKVIDHLTHNVYRGRMVYWANFYEKLFNFREARYFDIKGEYTGLTSKAMSAPDGMIRIPLNEESSKGAGQIEEFLMQFNGEGIQHVAFLTDDLVKTWDALKKIGMRFMTAPPDTYYEMLEGRLPDHGEPVDQLQARGILLDGSSVEGDKRLLLQIASETLMGPVFFEFIQRKGDDGFGEGNFKALFESIERDQVRRGVLTAD
modifications: PfHPPDm-F372A Amino Acid Sequence
Soybean T1 plants
  tolerance to topramezone, in words: higher tolerance
Rice T1 plants
  tolerance to topramezone, in words: higher tolerance

From patent US20230212587A1, “Mutant Hydroxyphenylpyruvate Dioxygenase Polypeptide, Encoding Gene Thereof and Use Therefor” (Beijing Dabeinong Biotechnology Co., Ltd., priority 2019, published 2023)
